Test results: the supplement of paper PMC9170038

Test system: MS2 coat protein
Assay: apparent KD of MS2 coat protein; designed switch direction (-1 OFF switch, 1 ON switch): -1; higher = weaker reporter binding
Summary of the method: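 SNAP-549-labelled MS2 coat protein was titrated, doubling from 0.7 or 1.5 nM to 3 µM, over designed RNA switches transcribed on Illumina chips by stalled E. coli RNA polymerase. Runs were done without input, with 200 uM small-molecule ligand, or with an oligonucleotide input. Apparent KD is the per-design median over clusters of curve-fitted normalised fluorescence.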

[1] = input ligand: microRNA oligo, concentration not stated
[2] = Eterna round: R95, input ligand: FMN 200 uM
[3] = Eterna round: R95, input ligand: microRNA oligo, concentration not stated
[4] = Eterna round: R95, input ligand: none

Sequence	apparent KD of MS2 coat protein (input ligand: FMN 200 uM) [nM]	apparent KD of MS2 coat protein [1] [nM]	apparent KD of MS2 coat protein (input ligand: none) [nM]	apparent KD of MS2 coat protein [2] [nM]	apparent KD of MS2 coat protein [3] [nM]	apparent KD of MS2 coat protein [4] [nM]
AGUACUAACACGGUUGUGUUAGUACAAUAAGCUUGUGAAACAUGAGGAUCACCCAUGUCCUCAUAAGCUCGUCUUAU [salish99_TOv2_r3_070] (Eterna round: R96, puzzle: Sensor v3, turn-off variant 2)	15	464	17.3	–	–	–
UUUUUAUAUGAAGGAUAUACUUAACAUGAGGAUCACCCAUGUGGUGUUGUGAGUGAGUGAGUUUAGUAGAAGGUCAAUGAUUUG [JMF's solution 63] (Eterna round: R96, puzzle: Exclusion NG 2)	894	237	563	–	–	–
UAUAACAAGCCAGAUCCUAACAUGAGGAUCACCCAUGUGCUCGUCUGAUUUUGUACUAUCAUGAGAGUGAUAGUACU [Level Boss var2-03] (puzzle: Sensor v3, turn-off variant 1)	–	–	–	181	488	192
UCAAAGUCAGGAUAUACAUGAGGAUCACCCAUGUAAAAUUUUAAUUUAAUUUGAAGGUGUAGAAGGGACAAACU [Ex3 #34] (Eterna round: R97, puzzle: Exclusion 3)	39.2	–	38.8	–	–	–
UUCAUUGCAGGAUAUACAUGAGGAUCACCCAUGUGACCAGUGGCCUGUUGCGGCUCCAGUAGAAGGGCAUGUGU [Eternabot (L2) Solution 89] (Eterna round: R97, puzzle: Exclusion 3)	63.8	–	61.2	–	–	–
UGGUAACAUGAGGAUCACCCAUGUCAGGAUAUCAGUAAGAAUAGAUUAGAGUAGAAGAUGAGAAGGGACUAUAU [Excluse me! 6 - Jieux - Exclusion 1] (puzzle: Exclusion 1)	–	–	–	–	33.8	–
AUAAUGUGAGGAUAUCAGUCGACUAGCCUCGGCUAGUCGACUGAGAAGGUACAUGAGGAUCACCCAUGUGGUUC [E4/11-B2] (Eterna round: R97, puzzle: Exclusion 4)	882	–	429	–	–	–
UAUUUCAUCUAUGGGAGUAACAUGAGGAUCACCCAUGUAUGUCUUGUUUUUUGUUCGUCUAAGACUUUCUGAUCAGU [JR_SV3TOV1_Sub031] (puzzle: Sensor v3, turn-off variant 1)	–	–	–	34.2	45.5	35.4
CAUGAUUUUCGGAAAAUGUACAUGAGGAUCACCCAUGUGACGAGUUACAUGAAAAACAAGCUUUUUGCUCGUCUUAU [Sensor v3 - Turn-off variant 1 - 11] (puzzle: Sensor v3, turn-off variant 1)	–	–	–	102	24.8	188
CCCACAAGCUUUUUGCUCGACAUGAGGAUCACCCAUGUUGAAUGGGUUAGAUGUGUGUGAAACAUAUAUAUUUACCU [-24.2, -47 kcal, A 27%] (Eterna round: R97, puzzle: Sensor, turn-off variant 1)	25.5	–	26.4	–	–	–
AAUACAAGCUAUUGAUCCCACAUGAGGAUCACCCAUGUACCUGGCCGUGAGACCAGGUUUACAAUAGCUCGUCUUAU [Sensor-V1 #48] (Eterna round: R97, puzzle: Sensor, turn-off variant 1)	107	–	93.8	–	–	–
CCUGGGUCAUCUCCCAGGAACAACAUGAGGAUCACCCAUGUCUAGGAUAUCCACCAGUCAAUAAAGGAGAAGGAGACGGUGGUU [Onlaxe] (Eterna round: R96, puzzle: Exclusion NG 3)	22.2	14.6	19.7	–	–	–
GGUGCUGGCGCGUCGGUGUUGGUGCAAUAAGCUUGUGAGACAUGAGGAUCACCCAUGUCCUCGUGGGCUCGUCUUGU [salish99_TOv2_r2_091] (puzzle: Sensor v3, turn-off variant 2)	–	–	–	91.2	79.3	93.7
CUCAUUCGAGGAUAUGCAGAAUGGGUCCAAUCAUAAGACAUACAUGAGGAUCACCCAUGUAGAAGGCGGCCAUC [Eternabot (L1) Solution 59] (Eterna round: R97, puzzle: Exclusion 2)	26	–	25.6	–	–	–
UGGUAACAUGAGGAUCACCCAUGUCAGGAUAUCAGUAAGAAGAGAUUAGAGUAGAAUAUGAGAAGGGACUAUAG [Excluse me! 1 - Jieux - Exclusion 1] (puzzle: Exclusion 1)	–	–	–	–	35.8	–
UAAUAUAGAGGAUAUACAUGAGGAUCACCCAUGUGAGUCCAUUAUGGGAUGAGAUCGGGUAGAAGGCUACGAAU [Eternabot (L2) Solution 28] (Eterna round: R97, puzzle: Exclusion 3)	143	–	57.7	–	–	–
AGUCAGGCGGUAGGAUAUCCAAACCGAGUGACCCUUACAUAACAUGAGGAUCACCCAUGUCGGUGGGAGAAGGGCCGUAAGGCA [Mat - Exclusion NG 2 - Mod of JL - D67] (Eterna round: R96, puzzle: Exclusion NG 2)	517	349	113	–	–	–

Sequence	apparent KD of MS2 coat protein (input ligand: FMN 200 uM) [nM]	apparent KD of MS2 coat protein [1] [nM]	apparent KD of MS2 coat protein (input ligand: none) [nM]	apparent KD of MS2 coat protein [2] [nM]	apparent KD of MS2 coat protein [3] [nM]	apparent KD of MS2 coat protein [4] [nM]
GUUUACAAGCUAAGAUCCUACAUGAGGAUCACCCAUGUGGUCCGGUGACGUGAGUCACCGGACUUAGCUCGUCUUGC [salish99_S_TOV1_R5_089] (Eterna round: R97, puzzle: Sensor, turn-off variant 1)	36	–	37.2	–	–	–
ACAACUGUUCCCAAGCUUUACAUGAGGAUCACCCAUGUUCGUCAAGAUUUGUACCAUCUAACGUAUGGCUCAAGUAC [Eternabot (L1) Solution 48] (Eterna round: R97, puzzle: Sensor, turn-off variant 1)	23	–	24.6	–	–	–
AAUUCACAUGAGGAUCACCCAUGUCAGGAUAUGGUGACGCGGGUUUCGGUGCGUGUUGCCAGAAGGGACGGCUG (puzzle: Exclusion 1)	–	–	–	–	92.4	–
AUCAGCUCGUGAGGAUAUACAUGAGGAUCACCCAUGUGGUCAAUAGCAGCUUCGGCUGCAUACAUGUAGAAGGCACGAGCUGAU [ENG2/7-A2] (Eterna round: R96, puzzle: Exclusion NG 2)	36.6	58.5	30.1	–	–	–
UAUUUCAUCUAUGGGAGUAACAUGAGGAUCACCCAUGUAUGUCUUGUUUUUUGUUCGUCUAAGACUUUCUGAUCAGU [JR_SV3TOV1_Sub031] (Eterna round: R96, puzzle: Sensor v3, turn-off variant 1)	39.4	43.1	35.6	–	–	–
UGUCAGAUGGUAGGAUAUCCAUAUUGAGUGACCCUUUCAUAACAUGAGGAUCACCCAUGUCGGUGGGAGAAGGGCCGUAUGGUG [salish99_ExNG02_R04_028] (Eterna round: R96, puzzle: Exclusion NG 2)	53.7	21.9	33.8	–	–	–
UCAUGUUAGCAGGAUAUGCUAUUUAUCUUUUAUGCAGAAGGGCUUACAUGAGGAUCACCCAUGUAUUAAGUCUU [JR_E6_Sub075] (puzzle: Exclusion 6)	–	–	–	–	18	–
GAUGAGGUAGGAUAUACGAGAAGAUAGGGUAGAUAGAGAACACAUGAGGAUCACCCAUGUAGAAGGACCAGUAG [Mat - Exclusion 2 - Mod of my Tesla design - D73] (puzzle: Exclusion 2)	–	–	–	–	25.9	–
UUAAUGUCAGGAUAUGCUUAAUAUAUUUUAUUAUAAUAUAUACAUGAGGAUCACCCAUGUAGAAGGGACAUUAU [LRO-Excl2-04-Fireball XL5] (Eterna round: R97, puzzle: Exclusion 2)	26.4	–	39.1	–	–	–
GCAGUGUCAGGAUAUUCGAGUUCGAGUGAAAGCUUGAGCUUGAAGAAGGGACAUGAGGAUCACCCAUGUGCUGU [-28.7, -27.7 kcal, A 27%, 1bis-(ca)1bis] (Eterna round: R97, puzzle: Exclusion 4)	117	–	42.1	–	–	–
UCACGGGAUUGAGGAUAUAUAUUAAUUUUUACAAUAGAAGGCAAAUUGUUAGUUUUUUCACUAUACAUGAGGAUCACCCAUGUU [JR_ExcBG1_Sub079] (Eterna round: R96, puzzle: Exclusion NG 1)	–	18.9	–	–	–	–
GAUGGAGAGCAGGAUAUCUUGGGUAAGCAUCAUAGAGAAGGGCUCACAUGAGGAUCACCCAUGUGGUCCAAGAA [Usbiridi] (puzzle: Exclusion 6)	–	–	–	–	14.1	–
AAAUUAGCAAGUAGGUCCGACAUGAGGAUCACCCAUGUAAUCUAAUAUUACGCUGCAUGAGAGUGCGCUCGUCUUAG [Sensor-V1 #17] (Eterna round: R97, puzzle: Sensor, turn-off variant 1)	241	–	337	–	–	–
ACCUAUGAGGAGGAUAUACAGUGCGAAAGGACAGUAGAAGGCUUCACAUGAGGAUCACCCAUGUCGAUAAGCGA [EX6 #83] (Eterna round: R97, puzzle: Exclusion 6)	30.2	–	21.5	–	–	–
CCAGAUGCAGGAUAUGUAAAAUUUGACAUGAGGAUCACCCAUGUAGAUCCUGAAUUUCCUGCAGAAGGGCAUCUGG [Mat - Exclusion 5 - Eli Mod - D20] (Eterna round: R97, puzzle: Exclusion 5)	288	–	105	–	–	–
UACUUCCGAGGAUAUACAUGAGGAUCACCCAUGUGCUUCAGCAUCUAAUGAUGCAUGGGUAGAAGGCGGUAGUU [LRO-Excl3-20] (puzzle: Exclusion 3)	–	–	–	–	56	–
UUUUAGAGAGGAUAUAUAUAGUGAAACAUGAGGAUCACCCAUGUAAUUAUAUGGAUGUAAAUAGAAGGCUCAUUUA [JL-ex5-3.02] (puzzle: Exclusion 5)	–	–	–	35.7	31.1	30.7
